We go through nine molecules from publication PMC7585439, “UvrD helicase–RNA polymerase interactions are governed by UvrD’s carboxy-terminal Tudor domain” (Communications Biology, 2020).

Data set [1] has as its target T1, UvrD-CTD (Escherichia coli, UniProt P03018 645-720).
T1 sequence: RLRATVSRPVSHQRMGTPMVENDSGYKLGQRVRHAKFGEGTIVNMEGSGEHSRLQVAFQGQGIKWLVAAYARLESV
Nature of the data set: BLI; NMR titrations at 298 K: UvrD-CTD in UvrD NMR buffer (20 mM K-phosphate, 50 mM KCl, 5 mM DTT, pH 6.5, 10% D2O), Mfd-RID in PBS pH 7.4 with 10% D2O; BLI buffer not given in the material. Particulars: protein: recombinant, tags: N-terminal His6, uncleavable, label: biotin. A general note: BLI is a label-free optical method that tracks binding on a fibre tip over time.

In data set [2] the target is T2, RNA polymerase core enzyme (subunits α2ββ'ω) (E. coli, UniProt P0A7Z4 1-329; P0A8V2 1-1342; P0A8T7 1-1407; P0A800 1-91).
T2 construct: RNA polymerase subunit alpha, E. coli; RNA polymerase subunit beta, E. coli; RNA polymerase subunit beta', E. coli; RNA polymerase subunit omega, E. coli; also called RNAP core-enzyme; source: expressed from plasmid pIA900, purified as by Svetlov and Artsimovitch with an added SEC step (Superose6); copies: 2 + 1 + 1 + 1
Nature of the data set: BLI; Octet RED96, 303 K; biotinylated ligand on streptavidin biosensors, analyte in a dose series, 0.1% BSA; association and dissociation 1000 s each; which partner was immobilised is not told. The following applies: both partners purified.

For the next data set, the target named is Mfd-RID (Escherichia coli, UniProt P30958 472-547). Kind of data set: NMR titration; 2 molar equivalents DNA; NMR titrations at 298 K: UvrD-CTD in UvrD NMR buffer (20 mM K-phosphate, 50 mM KCl, 5 mM DTT, pH 6.5, 10% D2O), Mfd-RID in PBS pH 7.4 with 10% D2O; BLI buffer not given in the material. Particulars: protein: recombinant; tags: His6-SUMO removed by SenP1; single strand.

Data set [3] deals with T1, UvrD-CTD. Nature of the data set: NMR titration; up to 2 molar equivalents DNA; NMR titrations at 298 K: UvrD-CTD in UvrD NMR buffer (20 mM K-phosphate, 50 mM KCl, 5 mM DTT, pH 6.5, 10% D2O), Mfd-RID in PBS pH 7.4 with 10% D2O; BLI buffer not given in the material. The following applies: protein: recombinant, tags: N-terminal His6, uncleavable.
Setting [4] is: self-complementary 28 bp duplex of 2 identical strands, 3' overhangs 7 nt, snap cooled after dissolving.

T2 sequence (P0A7Z4 whole entry, chain 1 of 4): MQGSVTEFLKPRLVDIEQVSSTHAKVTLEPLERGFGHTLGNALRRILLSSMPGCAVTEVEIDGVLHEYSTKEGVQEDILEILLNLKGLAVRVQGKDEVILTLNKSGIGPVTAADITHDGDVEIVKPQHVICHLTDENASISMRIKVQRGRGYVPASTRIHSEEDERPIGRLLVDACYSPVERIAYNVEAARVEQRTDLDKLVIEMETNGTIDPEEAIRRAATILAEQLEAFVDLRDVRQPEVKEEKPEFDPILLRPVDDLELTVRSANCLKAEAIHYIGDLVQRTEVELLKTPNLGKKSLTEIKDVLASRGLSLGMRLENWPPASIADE
T2 sequence (P0A8V2 whole entry, chain 2 of 4): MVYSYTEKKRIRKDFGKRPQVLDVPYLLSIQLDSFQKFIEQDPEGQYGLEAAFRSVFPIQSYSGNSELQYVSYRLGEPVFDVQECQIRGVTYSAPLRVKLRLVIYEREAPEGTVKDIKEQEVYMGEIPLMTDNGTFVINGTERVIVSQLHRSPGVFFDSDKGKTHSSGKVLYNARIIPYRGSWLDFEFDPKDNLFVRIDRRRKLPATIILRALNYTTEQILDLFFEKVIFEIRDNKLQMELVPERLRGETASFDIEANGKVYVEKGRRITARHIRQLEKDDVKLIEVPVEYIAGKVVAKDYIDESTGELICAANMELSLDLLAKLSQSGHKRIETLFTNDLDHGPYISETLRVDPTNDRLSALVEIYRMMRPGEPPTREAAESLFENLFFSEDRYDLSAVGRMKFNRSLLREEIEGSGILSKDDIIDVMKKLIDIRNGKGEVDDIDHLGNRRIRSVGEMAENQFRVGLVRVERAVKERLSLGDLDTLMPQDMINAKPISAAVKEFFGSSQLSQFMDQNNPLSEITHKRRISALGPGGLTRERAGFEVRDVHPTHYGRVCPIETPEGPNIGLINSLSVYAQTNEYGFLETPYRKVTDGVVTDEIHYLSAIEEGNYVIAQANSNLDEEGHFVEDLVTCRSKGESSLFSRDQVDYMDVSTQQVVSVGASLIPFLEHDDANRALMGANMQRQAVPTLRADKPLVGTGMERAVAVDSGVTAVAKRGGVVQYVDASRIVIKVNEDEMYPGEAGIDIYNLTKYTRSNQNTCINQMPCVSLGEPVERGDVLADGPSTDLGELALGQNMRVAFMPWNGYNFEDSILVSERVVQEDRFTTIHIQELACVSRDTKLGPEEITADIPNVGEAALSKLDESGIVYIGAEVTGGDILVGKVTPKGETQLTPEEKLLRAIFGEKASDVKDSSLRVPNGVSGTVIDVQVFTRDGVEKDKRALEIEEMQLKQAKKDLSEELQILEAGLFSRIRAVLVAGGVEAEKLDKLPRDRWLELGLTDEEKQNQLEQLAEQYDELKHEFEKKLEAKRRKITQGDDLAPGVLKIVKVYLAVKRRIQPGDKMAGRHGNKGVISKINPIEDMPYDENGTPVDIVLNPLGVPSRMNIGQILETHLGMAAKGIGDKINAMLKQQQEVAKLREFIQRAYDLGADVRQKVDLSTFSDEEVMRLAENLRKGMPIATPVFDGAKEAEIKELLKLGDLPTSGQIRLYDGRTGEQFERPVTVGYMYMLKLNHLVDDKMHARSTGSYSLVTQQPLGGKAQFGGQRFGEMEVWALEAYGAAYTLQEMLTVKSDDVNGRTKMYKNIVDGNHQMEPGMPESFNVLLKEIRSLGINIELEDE
T2 sequence (P0A8T7 whole entry, chain 3 of 4): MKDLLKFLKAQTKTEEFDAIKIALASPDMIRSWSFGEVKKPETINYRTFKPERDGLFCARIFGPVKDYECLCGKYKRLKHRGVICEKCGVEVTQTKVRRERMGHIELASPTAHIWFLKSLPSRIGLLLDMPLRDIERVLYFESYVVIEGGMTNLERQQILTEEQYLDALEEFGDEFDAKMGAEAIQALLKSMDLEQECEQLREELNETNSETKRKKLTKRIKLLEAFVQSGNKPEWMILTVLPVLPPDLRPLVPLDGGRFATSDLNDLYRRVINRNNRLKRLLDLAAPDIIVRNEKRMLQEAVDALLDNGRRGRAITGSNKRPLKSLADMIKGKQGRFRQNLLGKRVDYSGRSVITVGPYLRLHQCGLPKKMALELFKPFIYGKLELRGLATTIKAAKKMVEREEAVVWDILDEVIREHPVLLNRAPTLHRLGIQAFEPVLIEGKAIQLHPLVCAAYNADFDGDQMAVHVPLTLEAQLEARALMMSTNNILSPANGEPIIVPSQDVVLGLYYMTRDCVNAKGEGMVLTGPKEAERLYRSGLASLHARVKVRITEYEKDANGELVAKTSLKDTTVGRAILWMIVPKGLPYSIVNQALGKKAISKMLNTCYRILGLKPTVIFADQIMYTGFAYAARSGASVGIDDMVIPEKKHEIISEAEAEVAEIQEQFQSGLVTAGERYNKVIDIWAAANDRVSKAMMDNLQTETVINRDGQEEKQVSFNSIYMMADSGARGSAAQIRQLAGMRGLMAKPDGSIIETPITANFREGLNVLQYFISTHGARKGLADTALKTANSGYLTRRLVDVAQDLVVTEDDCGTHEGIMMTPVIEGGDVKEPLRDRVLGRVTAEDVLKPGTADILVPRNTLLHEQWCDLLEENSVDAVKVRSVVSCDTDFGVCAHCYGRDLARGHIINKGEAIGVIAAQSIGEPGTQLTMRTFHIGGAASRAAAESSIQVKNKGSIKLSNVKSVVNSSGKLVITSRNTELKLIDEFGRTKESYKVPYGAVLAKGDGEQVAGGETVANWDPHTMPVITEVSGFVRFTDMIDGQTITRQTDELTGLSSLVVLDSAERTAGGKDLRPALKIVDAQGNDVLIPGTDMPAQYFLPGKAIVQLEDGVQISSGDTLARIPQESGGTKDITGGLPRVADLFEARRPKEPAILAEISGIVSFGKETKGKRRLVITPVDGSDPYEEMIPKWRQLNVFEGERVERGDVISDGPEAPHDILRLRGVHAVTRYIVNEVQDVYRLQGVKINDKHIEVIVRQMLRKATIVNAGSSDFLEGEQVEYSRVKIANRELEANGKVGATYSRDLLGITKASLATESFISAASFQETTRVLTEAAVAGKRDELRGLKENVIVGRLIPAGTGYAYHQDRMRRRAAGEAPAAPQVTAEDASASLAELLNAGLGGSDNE
T2 sequence (P0A800 whole entry, chain 4 of 4): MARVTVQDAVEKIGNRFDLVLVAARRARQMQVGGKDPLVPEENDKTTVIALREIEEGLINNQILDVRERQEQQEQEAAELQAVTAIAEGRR

B1: biotinylated 17mer ssDNA (ssDNA)
DNA: GCAGTGCTCGTTTTTTT
modifications: biotin (position not given)
What is called Kd is the equilibrium constant for the complex coming apart. As to B1, the dissociation constant (Kd) with UvrD-CTD [1] (single strand) was 3.8 ± 0.47 µM.

B2: UvrD carboxy-terminal region (UvrD-CTD, residues 645-720) (domain or fragment, E. coli, UniProt P03018 645-720, looked up)
chain: T1 sequence
notes: UvrD helicase (Helicase II), E. coli, residues 645-720; The His6 tag is called uncleavable; Used [U-15N] labelled in the NMR experiments; source: E. coli BL21(λDE3) pLysS, purified (Ni-NTA, SEC); not shown: His6, N-terminal, kept
B2 had a dissociation constant (Kd) in data set [2] of 0.077 ± 0.0003 µM.

B3: 17mer ssDNA (ssDNA)
DNA: GCAGTGCTCGTTTTTTT
With B3, the values for the binding result with Mfd-RID and with UvrD-CTD [3] (single strand) were “no binding” and “binds”, respectively.

B4: UvrD helicase, full-length (1-720) (enzyme, E. coli, UniProt P03018 1-720, looked up)
chain: MDVSYLLDSLNDKQREAVAAPRSNLLVLAGAGSGKTRVLVHRIAWLMSVENCSPYSIMAVTFTNKAAAEMRHRIGQLMGTSQGGMWVGTFHGLAHRLLRAHHMDANLPQDFQILDSEDQLRLLKRLIKAMNLDEKQWPPRQAMWYINSQKDEGLRPHHIQSYGNPVEQTWQKVYQAYQEACDRAGLVDFAELLLRAHELWLNKPHILQHYRERFTNILVDEFQDTNNIQYAWIRLLAGDTGKVMIVGDDDQSIYGWRGAQVENIQRFLNDFPGAETIRLEQNYRSTSNILSAANALIENNNGRLGKKLWTDGADGEPISLYCAFNELDEARFVVNRIKTWQDNGGALAECAILYRSNAQSRVLEEALLQASMPYRIYGGMRFFERQEIKDALSYLRLIANRNDDAAFERVVNTPTRGIGDRTLDVVRQTSRDRQLTLWQACRELLQEKALAGRAASALQRFMELIDALAQETADMPLHVQTDRVIKDSGLRTMYEQEKGEKGQTRIENLEELVTATRQFSYNEEDEDLMPLQAFLSHAALEAGEGQADTWQDAVQLMTLHSAKGLEFPQVFIVGMEEGMFPSQMSLDEGGRLEEERRLAYVGVTRAMQKLTLTYAETRRLYGKEVYHRPSRFIGELPEECVEEVRLRATVSRPVSHQRMGTPMVENDSGYKLGQRVRHAKFGEGTIVNMEGSGEHSRLQVAFQGQGIKWLVAAYARLESV
notes: UvrD helicase (Helicase II), E. coli, full-length, residues 1-720; The His6 tag is called uncleavable; Used [U-2H,15N] labelled in the NMR experiments; also called UvrD-FL; UvrD full-length; source: E. coli BL21(λDE3) pLysS, purified (Ni-NTA, SEC); not shown: His6, N-terminal, kept
As for B4, the Kd in data set [2] worked out at 1 ± 0.13 µM.

B5: UvrD-ΔCTD (1-664) (domain or fragment, E. coli, UniProt P03018 1-664, looked up)
chain: MDVSYLLDSLNDKQREAVAAPRSNLLVLAGAGSGKTRVLVHRIAWLMSVENCSPYSIMAVTFTNKAAAEMRHRIGQLMGTSQGGMWVGTFHGLAHRLLRAHHMDANLPQDFQILDSEDQLRLLKRLIKAMNLDEKQWPPRQAMWYINSQKDEGLRPHHIQSYGNPVEQTWQKVYQAYQEACDRAGLVDFAELLLRAHELWLNKPHILQHYRERFTNILVDEFQDTNNIQYAWIRLLAGDTGKVMIVGDDDQSIYGWRGAQVENIQRFLNDFPGAETIRLEQNYRSTSNILSAANALIENNNGRLGKKLWTDGADGEPISLYCAFNELDEARFVVNRIKTWQDNGGALAECAILYRSNAQSRVLEEALLQASMPYRIYGGMRFFERQEIKDALSYLRLIANRNDDAAFERVVNTPTRGIGDRTLDVVRQTSRDRQLTLWQACRELLQEKALAGRAASALQRFMELIDALAQETADMPLHVQTDRVIKDSGLRTMYEQEKGEKGQTRIENLEELVTATRQFSYNEEDEDLMPLQAFLSHAALEAGEGQADTWQDAVQLMTLHSAKGLEFPQVFIVGMEEGMFPSQMSLDEGGRLEEERRLAYVGVTRAMQKLTLTYAETRRLYGKEVYHRPSRFIGELPEECVEEVRLRATVSRPVSHQRMGTPMV
notes: UvrD helicase (Helicase II), E. coli, residues 1-664; made by inserting a stop codon; Probably the His6 full-length construct; also called truncated UvrD lacking the CTD; source: E. coli BL21(λDE3) pLysS, purified (Ni-NTA, SEC)
For B5, in data set [2], the Kd was 1.9 ± 0.15 µM.

B6: biotinylated 35mer dsDNA (dsDNA)
DNA 1: CGAGCACTGCACTCGAGTGCAGTGCTCGTTGTTAT
DNA 2: B6 DNA 1
modifications: biotin (position not given)
For B6, the Kd with UvrD-CTD [1] (setting [4]) stood at 1.9 ± 0.17 µM.

B7: 35mer dsDNA (dsDNA)
DNA 1: B6 DNA 1
DNA 2: B6 DNA 1
Consider B7, for which the binding result with UvrD-CTD [3] (setting [4]) is listed as “binds”.

B8: Mfd RNAP Interaction Domain (Mfd-RID, residues 472-547; Domain 4) (domain or fragment, E. coli, UniProt P30958 472-547, looked up)
chain: RNLAELHIGQPVVHLEHGVGRYAGMTTLEAGGITGEYLMLTYANDAKLYVPVSSLHLISRYAGGAEENAPLHKLGG
notes: Mfd (Transcription-Repair Coupling Factor, TRCF), E. coli, residues 472-547, comprising Domain 4; Used [U-15N] labelled in the NMR experiments; source: E. coli BL21 Star (λDE3), purified (Ni-NTA, SenP1 cleavage, second Ni-NTA, SEC); not shown: His6, N-terminal, cleaved; Sumo, N-terminal, cleaved
With B8, binding in data set [2] was put at a Kd of 0.25 ± 0.052 µM.

B9: Mfd full-length (1-1148) (enzyme, E. coli, UniProt P30958 1-1148, looked up)
chain: MPEQYRYTLPVKAGEQRLLGELTGAACATLVAEIAERHAGPVVLIAPDMQNALRLHDEISQFTDQMVMNLADWETLPYDSFSPHQDIISSRLSTLYQLPTMQRGVLIVPVNTLMQRVCPHSFLHGHALVMKKGQRLSRDALRTQLDSAGYRHVDQVMEHGEYATRGALLDLFPMGSELPYRLDFFDDEIDSLRVFDVDSQRTLEEVEAINLLPAHEFPTDKAAIELFRSQWRDTFEVKRDPEHIYQQVSKGTLPAGIEYWQPLFFSEPLPPLFSYFPANTLLVNTGDLETSAERFQADTLARFENRGVDPMRPLLPPQSLWLRVDELFSELKNWPRVQLKTEHLPTKAANANLGFQKLPDLAVQAQQKAPLDALRKFLETFDGPVVFSVESEGRREALGELLARIKIAPQRIMRLDEASDRGRYLMIGAAEHGFVDTVRNLALICESDLLGERVARRRQDSRRTINPDTLIRNLAELHIGQPVVHLEHGVGRYAGMTTLEAGGITGEYLMLTYANDAKLYVPVSSLHLISRYAGGAEENAPLHKLGGDAWSRARQKAAEKVRDVAAELLDIYAQRAAKEGFAFKHDREQYQLFCDSFPFETTPDQAQAINAVLSDMCQPLAMDRLVCGDVGFGKTEVAMRAAFLAVDNHKQVAVLVPTTLLAQQHYDNFRDRFANWPVRIEMISRFRSAKEQTQILAEVAEGKIDILIGTHKLLQSDVKFKDLGLLIVDEEHRFGVRHKERIKAMRANVDILTLTATPIPRTLNMAMSGMRDLSIIATPPARRLAVKTFVREYDSMVVREAILREILRGGQVYYLYNDVENIQKAAERLAELVPEARIAIGHGQMRERELERVMNDFHHQRFNVLVCTTIIETGIDIPTANTIIIERADHFGLAQLHQLRGRVGRSHHQAYAWLLTPHPKAMTTDAQKRLEAIASLEDLGAGFALATHDLEIRGAGELLGEEQSGSMETIGFSLYMELLENAVDALKAGREPSLEDLTSQQTEVELRMPSLLPDDFIPDVNTRLSFYKRIASAKTENELEEIKVELIDRFGLLPDPARTLLDIARLRQQAQKLGIRKLEGNEKGGVIEFAEKNHVNPAWLIGLLQKQPQHYRLDGPTRLKFIQDLSERKTRIEWVRQFMRELEENAIA
notes: Mfd (Transcription-Repair Coupling Factor, TRCF), E. coli, full-length, residues 1-1148; Construct bought from Genscript; Used [U-2H,15N] labelled in the NMR experiments; also called Transcription-Repair Coupling Factor; TRCF; source: E. coli BL21 Star (λDE3), purified (Ni-NTA, SEC)
Consider B9, for which, in data set [2], binding was put at a Kd of 0.31 ± 0.014 µM.
